Measurements published in patent US9688764B2, “Methods of treating breast cancer by administering anti-human prolactin receptor (PRLR) antibodies” (REGENERON PHARMACEUTICALS, INC., priority 2013, dated 2017).

T1: HEK293/hPRLR (Homo sapiens, UniProt P16471)
T1 construct: HA; expressed in transfected cells; host or cells: HEK293
T1 sequence (P16471 25-622): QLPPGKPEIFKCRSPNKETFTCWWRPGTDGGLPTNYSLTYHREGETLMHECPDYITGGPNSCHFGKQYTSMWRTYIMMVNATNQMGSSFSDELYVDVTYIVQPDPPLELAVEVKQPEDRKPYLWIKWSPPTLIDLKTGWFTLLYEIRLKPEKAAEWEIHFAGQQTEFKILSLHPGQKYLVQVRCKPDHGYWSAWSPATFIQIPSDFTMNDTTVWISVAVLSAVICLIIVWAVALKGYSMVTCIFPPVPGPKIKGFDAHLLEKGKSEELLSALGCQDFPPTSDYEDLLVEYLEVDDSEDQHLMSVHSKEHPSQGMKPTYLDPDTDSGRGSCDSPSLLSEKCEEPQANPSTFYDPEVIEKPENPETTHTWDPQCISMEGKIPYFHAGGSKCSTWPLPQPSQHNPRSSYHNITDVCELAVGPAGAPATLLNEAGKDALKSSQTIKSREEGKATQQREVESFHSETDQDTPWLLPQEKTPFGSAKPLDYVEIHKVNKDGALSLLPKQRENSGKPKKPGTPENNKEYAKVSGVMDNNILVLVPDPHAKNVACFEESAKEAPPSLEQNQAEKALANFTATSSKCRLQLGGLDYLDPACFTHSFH

T2: HEK293/mPRLR (Mus musculus, UniProt Q08501)
T2 construct: HA; expressed in transfected cells; host or cells: HEK293
T2 sequence (Q08501 20-608): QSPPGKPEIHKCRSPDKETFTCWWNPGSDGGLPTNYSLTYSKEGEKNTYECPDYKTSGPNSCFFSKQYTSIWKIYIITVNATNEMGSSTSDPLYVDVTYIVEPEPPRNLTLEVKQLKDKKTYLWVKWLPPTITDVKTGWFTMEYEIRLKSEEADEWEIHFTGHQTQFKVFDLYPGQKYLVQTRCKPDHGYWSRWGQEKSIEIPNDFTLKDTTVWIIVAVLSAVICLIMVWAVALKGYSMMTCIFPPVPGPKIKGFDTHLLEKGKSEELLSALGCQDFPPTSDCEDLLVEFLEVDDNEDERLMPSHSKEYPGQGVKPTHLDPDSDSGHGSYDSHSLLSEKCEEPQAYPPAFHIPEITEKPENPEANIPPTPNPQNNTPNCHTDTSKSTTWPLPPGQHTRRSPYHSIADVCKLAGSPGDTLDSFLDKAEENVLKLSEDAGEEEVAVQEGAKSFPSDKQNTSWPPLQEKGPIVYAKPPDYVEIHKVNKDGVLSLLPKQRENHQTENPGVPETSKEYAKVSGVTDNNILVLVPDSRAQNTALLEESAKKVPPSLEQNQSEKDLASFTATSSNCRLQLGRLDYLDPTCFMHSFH

T3: T47D (native PRLR expressing cell line) (Homo sapiens, UniProt P16471)
T3 construct: a native PRLR expressing cell line (T47D); endogenous in cells; host or cells: T47D
T3 sequence (P16471 25-622): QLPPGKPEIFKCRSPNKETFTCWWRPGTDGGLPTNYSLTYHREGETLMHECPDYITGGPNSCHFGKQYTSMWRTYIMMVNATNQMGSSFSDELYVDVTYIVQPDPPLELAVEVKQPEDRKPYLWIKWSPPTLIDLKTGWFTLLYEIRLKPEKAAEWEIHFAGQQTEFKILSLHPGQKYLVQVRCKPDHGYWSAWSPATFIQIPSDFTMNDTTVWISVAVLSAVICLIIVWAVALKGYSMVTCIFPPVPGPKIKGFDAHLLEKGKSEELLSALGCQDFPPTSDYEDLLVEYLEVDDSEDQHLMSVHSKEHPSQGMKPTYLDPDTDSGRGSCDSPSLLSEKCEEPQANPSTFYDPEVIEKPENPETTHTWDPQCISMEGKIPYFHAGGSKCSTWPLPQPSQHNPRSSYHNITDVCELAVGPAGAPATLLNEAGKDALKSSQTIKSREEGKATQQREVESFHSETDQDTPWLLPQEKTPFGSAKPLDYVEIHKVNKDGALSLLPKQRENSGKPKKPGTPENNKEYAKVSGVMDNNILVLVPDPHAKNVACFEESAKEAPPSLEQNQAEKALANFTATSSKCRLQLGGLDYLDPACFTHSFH

T4: PRLR-expressing cells (T47D) (Homo sapiens, UniProt P16471)
T4 construct: a native PRLR expressing cell line (T47D); endogenous in cells; host or cells: T47D
T4 sequence (P16471 25-622): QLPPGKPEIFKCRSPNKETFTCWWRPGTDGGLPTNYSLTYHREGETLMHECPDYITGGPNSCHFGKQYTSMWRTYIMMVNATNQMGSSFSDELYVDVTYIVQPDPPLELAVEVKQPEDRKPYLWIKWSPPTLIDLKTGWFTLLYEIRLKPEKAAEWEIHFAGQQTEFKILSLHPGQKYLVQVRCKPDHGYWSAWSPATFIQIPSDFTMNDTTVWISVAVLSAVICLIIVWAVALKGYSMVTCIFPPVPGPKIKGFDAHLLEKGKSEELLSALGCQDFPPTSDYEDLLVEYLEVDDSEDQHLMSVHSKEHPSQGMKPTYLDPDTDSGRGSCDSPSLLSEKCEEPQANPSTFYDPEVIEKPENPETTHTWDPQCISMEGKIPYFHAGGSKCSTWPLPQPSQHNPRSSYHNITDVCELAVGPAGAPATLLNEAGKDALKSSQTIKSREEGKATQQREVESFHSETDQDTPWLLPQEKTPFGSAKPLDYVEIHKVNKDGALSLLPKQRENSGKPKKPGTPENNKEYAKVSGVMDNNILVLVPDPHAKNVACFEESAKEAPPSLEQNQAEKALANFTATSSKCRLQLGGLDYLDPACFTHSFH


What was measured:
[1] = test system: HEK293 (non-expressing parental cells); experiment: FACS cell surface binding
Method in brief: (§1)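 HEK293 lines stably expressing HA-tagged human, cynomolgus or mouse PRLR, native-expressing T47D and parental HEK293 tested by flow cytometry. Cells (1×10^5) stained with primary antibody 30 min on ice, then PE anti-human secondary; MFI expressed as fold over isotype control.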

HEK293/hPRLR = target: T1, HEK293/hPRLR; experiment: FACS cell surface binding
Method in brief: as §1

HEK293/mPRLR = target: T2, HEK293/mPRLR; experiment: FACS cell surface binding
Method in brief: as §1

[2] = target: T3, T47D (native PRLR expressing cell line); experiment: FACS cell surface binding
Method in brief: as §1

HEK293/mfPRLR = experiment: FACS cell surface binding; set-up: species or system macaca fascicularis
Method in brief: as §1

[3] = target: T4, PRLR-expressing cells (T47D); experiment: Antibody binding and internalization by PRLR-expressing cells (imaging); assay type: cell-based; conditions: [mAb] (0.67 nM); for % Internalization relative to Control I: alexa488 intensity in intracellular vesicles, 1 h at 37° C.; for % Total Binding relative to Control I: whole cell alexa488 intensity at 37° C.

Sequence of HEK293/mfPRLR (as listed by the source): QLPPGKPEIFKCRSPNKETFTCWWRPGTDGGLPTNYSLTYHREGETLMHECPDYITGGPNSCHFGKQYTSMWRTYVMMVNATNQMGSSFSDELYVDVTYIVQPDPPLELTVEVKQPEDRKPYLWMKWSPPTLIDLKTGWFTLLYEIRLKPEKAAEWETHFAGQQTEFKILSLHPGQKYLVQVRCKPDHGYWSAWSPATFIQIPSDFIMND

Molecule | FACS Cell Binding (Fold Above Background) [1] [Fold Above Background] | FACS Cell Binding (Fold Above Background) (HEK293/hPRLR) | FACS Cell Binding (Fold Above Background) (HEK293/mPRLR) | FACS Cell Binding (Fold Above Background) [2] [Fold Above Background] | FACS Cell Binding (Fold Above Background) (HEK293/mfPRLR) | % Internalization relative to Control I [3] [%] | % Total Binding relative to Control I [3] [%]
H1H6800P: anti-PRLR antibody, human IgG1 Fc; HCVR/LCVR SEQ ID NOs 194/202 (antibody, V domains shown, human IgG1 Fc) VH: EVQLVESGGGLVQPGRSLRLSCAASGFTFDGYAMHWVRQGPGKGLEWVSGISWYSDTLGYADSVKGRFTISRDNAKNSLYLQMNSLRTEDTAFYYCAKISSSGWAFDYWGQGTLVTVSS VL: EIVLTQSPGTLSLSPGERATLSCRASHSVSSAYLAWYQQKPGQTPRLLIYGTSSRATGIPDRFSGSGSGTDFTLTISRLEPEDFAVYYCQQYGSSPLFTFGPGTKVDIK | 1 | 35 | 1 | 41 | 29 | 198.3 | 186.8
H1H6801P: anti-PRLR antibody, human IgG1 Fc; HCVR/LCVR SEQ ID NOs 210/218 (antibody, V domains shown, human IgG1 Fc) VH: QVQLQQSGPGLVKPSQTLSLTCVISGDSVSSNTAWNWVRQSPSRGLEWLGRTYYRSKWYNDYAVSVKSRITINPDTSKNQFSLLMNSVTPEDTAVYYCARVVRGLNYFDYWGQGTLVTVSS VL: DIVMTQSPDSLAVSLGERATINCKSSQSVLYNSNNKNYLAWYQQKPGQPPKLLIYWSSSRESGVPDRFSGSGSGTDFTLTISGLQAEDVAIYYCQQYSTIPYTFGQGTKLEIK | 7 | 47 | 56 | 45 | 88 | 148.9 | 155.7
H1H6803P: anti-PRLR antibody, human IgG1 Fc; HCVR/LCVR SEQ ID NOs 226/234 (antibody, V domains shown, human IgG1 Fc) VH: EVQLVESGGGVVRPGGSLRLSCAASGFKFDDYGMTWVRHVPGKGLEWVSGINWNGGRTGYTDSVKGRFTISRDNAKNSLYLQMNSLRAEDTALYHCAGARRDAFDIWGQGTMVTVSS VL: DIQMTQSPSSLSASIGDRVTITCRASQNIIKYLNWYQQNAGKAPKLLIYTASSLQSGVPSRFSGSGSGTDFTLTISSLQPEDFATYYCQQSSSSPYTFGQGTKLEIK | 1 | 39 | 1 | 39 | 28 | 190.5 | 205.5
H1H6804P: anti-PRLR antibody, human IgG1 Fc; HCVR/LCVR SEQ ID NOs 242/250 (antibody, V domains shown, human IgG1 Fc) VH: QVTLKESGPVLVKPTQTLSLTCTVSGFSLSDAGMGVSWIRQPPGKALEWLAHIFSNDGKSYSTSLKSRLTISKDTSKRQVVLTMTNMDPVDTATYYCARIRTGTYSLYLDYWGQGTLVTVSS VL: DIQMTQSPSSLSASVGDRVTITCRASQSINSYLNWYQQKPGKAPKLLLYFASSLQSGVPSRFSGSGSGTDFTLTISSLQPEDFASYYCQESYSTPWTFGQGTKVEIK | 1 | 1 | 1 | 34 | 29 | 138.9 | 149.6
H1H6953N: human IgG1 Fc form of H1M6953N; anti-PRLR; HCVR/LCVR SEQ ID NOs 274/282 (antibody, V domains shown, human IgG1 Fc) VH: EVQLLESGGGLVQPGGTLRLSCAASGFTFSAYAMSWVRQAPGKGLEWVSSINVRAGDTYYADSVKGRFTISRDNSKNTLFLLMNSLRAEDTAAYYCAKARYSSNWGFDFWGQGTLVTVSS VL: DIVMTQSPDSLTVSLGARTTINCQSSQTILHSSNNHNYLAWYQQKPGLPPKLLIYWSSTRESGVPDRFSGSGSGTDFTLTISSLQAEDVAIYYCQQYSNTPYTFGQGTKLEIN | 2 | 37 | 2 | 40 | 29 | 153.9 | 164.2
